The values below come from patent publication US20150344570A1 (published 2015).

The target in the assay is T1, FcγRIIIa extracellular domain with C-terminal His tag (human, UniProt P08637 17-208).
T1 construct: extracellular domain; also called FcgRIIIa; 3a; not shown: His tag attached to the C terminus
Kind of assay: SPR Biacore, captured antibody, FcγR analyte, relative binding. The method, then:
Analysis of interaction between objective antibody and the FcγR was carried out using Biacore T100 (GE Healthcare). HBS-EP+ (GE Healthcare) was used as the running buffer, and the measurement temperature was set to 25° C. Chips produced by immobilizing the antigen peptide by the amine coupling method to a Series S Sencor Chip CM5 (GE Healthcare), or alternatively, chips produced by allowing preliminarily biotinylated antigen peptides to interact with and immobilize onto a Series S Sensor Chip SA (certified) (GE Healthcare) were used. Antibodies of interest were captured onto an antigen peptide-immobilized chip, and allowed to interact to each FcγR diluted with running buffer. To regenerate and repeatedly use the chip, the antibodies captured on the chip were washed off by reacting 10 mM glycine-HCl, pH 1.5.

T1 sequence (P08637 17-208): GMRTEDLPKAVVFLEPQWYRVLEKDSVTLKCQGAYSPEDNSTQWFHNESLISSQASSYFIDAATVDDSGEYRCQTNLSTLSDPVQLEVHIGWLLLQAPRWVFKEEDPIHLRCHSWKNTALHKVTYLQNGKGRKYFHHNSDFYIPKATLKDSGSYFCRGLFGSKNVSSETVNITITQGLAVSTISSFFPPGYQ

B1: GpH7-A5/GpH7-B3 variant A330_08L/GpL16-k0 (antibody, human IgG1, kappa)
heavy 1: not shown
heavy 2: not shown
light: DIVMTQSPLSLPVTPGEPASISCQASESLVHSNRNTYLHWYLQKPGQSPQLLIYKVSNRFSGVPDRFSGSGSGTDFTLKISRVEAEDVGVYYCSQNTHVPPTFGQGTKVEIERTVAAPSVFIFPPSDEQLKSGTASVVCLLNNFYPREAKVQWKVDNALQSGNSQESVTEQDSKDSTYSLSSTLTLSKADYEKHKVYACEVTHQGLSSPVTKSFNRGEC
notes: also called He Ab A330_08L
For the molecule B1, the He/Con_3a is 124 % of HeCon Ab GpH7-A5/GpH7-B3/GpL16-k0 (=100).

B2: GpH7-B3 variant I336_06M/GpL16-k0 (antibody, human IgG1, kappa)
heavy: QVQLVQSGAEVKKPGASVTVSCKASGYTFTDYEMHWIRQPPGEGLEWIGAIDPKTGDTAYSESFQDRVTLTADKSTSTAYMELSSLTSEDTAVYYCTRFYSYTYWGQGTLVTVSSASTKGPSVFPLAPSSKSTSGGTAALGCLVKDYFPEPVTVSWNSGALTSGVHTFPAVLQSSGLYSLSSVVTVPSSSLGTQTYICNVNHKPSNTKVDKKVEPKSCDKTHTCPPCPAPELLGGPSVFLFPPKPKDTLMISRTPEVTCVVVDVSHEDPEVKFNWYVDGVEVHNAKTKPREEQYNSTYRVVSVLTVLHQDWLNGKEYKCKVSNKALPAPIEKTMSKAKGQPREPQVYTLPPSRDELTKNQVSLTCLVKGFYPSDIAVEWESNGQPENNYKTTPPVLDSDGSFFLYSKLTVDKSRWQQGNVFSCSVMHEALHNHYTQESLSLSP
light: B1 light
notes: also called Ho Ab I336_06M
Regarding B2, the Ho/Con_3a is 107 % of HoCon Ab GpH7-B3/GpL16-k0 (=100).

B3: GpH7-B3 variant Q295_14T/GpL16-k0 (antibody, human IgG1, kappa)
heavy: not shown
light: B1 light
notes: also called Ho Ab Q295_14T
For the molecule B3, the Ho/Con_3a is 108 % of HoCon Ab GpH7-B3/GpL16-k0 (=100).

B4: GpH7-B3 variant K326_06M/GpL16-k0 (antibody, human IgG1, kappa)
heavy: not shown
light: B1 light
notes: also called Ho Ab K326_06M
For the molecule B4, the Ho/Con_3a is 129 % of HoCon Ab GpH7-B3/GpL16-k0 (=100).

B5: GpH7-B3 variant K326_09D/GpL16-k0 (antibody, human IgG1, kappa)
heavy: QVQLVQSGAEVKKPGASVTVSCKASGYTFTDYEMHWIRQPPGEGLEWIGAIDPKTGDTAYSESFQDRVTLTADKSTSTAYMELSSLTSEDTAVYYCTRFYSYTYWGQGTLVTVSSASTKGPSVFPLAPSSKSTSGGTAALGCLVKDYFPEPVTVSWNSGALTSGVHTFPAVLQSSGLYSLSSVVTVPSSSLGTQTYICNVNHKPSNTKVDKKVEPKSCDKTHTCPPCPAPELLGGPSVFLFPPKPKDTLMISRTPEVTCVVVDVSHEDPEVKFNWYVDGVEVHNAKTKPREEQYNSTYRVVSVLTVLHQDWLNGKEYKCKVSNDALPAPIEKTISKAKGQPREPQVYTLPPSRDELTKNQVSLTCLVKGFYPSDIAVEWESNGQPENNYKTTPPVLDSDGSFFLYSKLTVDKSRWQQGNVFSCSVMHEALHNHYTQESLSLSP
light: B1 light
notes: also called Ho Ab K326_09D
Regarding B5, the Ho/Con_3a was 163 % of HoCon Ab GpH7-B3/GpL16-k0 (=100).

B6: GpH7-B3 variant K326_14T/GpL16-k0 (antibody, human IgG1, kappa)
heavy: not shown
light: B1 light
notes: also called Ho Ab K326_14T
In the case of B6, the Ho/Con_3a is 147 % of HoCon Ab GpH7-B3/GpL16-k0 (=100).

B7: GpH7-B3 variant K326_19Q/GpL16-k0 (antibody, human IgG1, kappa)
heavy: not shown
light: B1 light
notes: also called Ho Ab K326_19Q
On to B7, for which the Ho/Con_3a was 118 % of HoCon Ab GpH7-B3/GpL16-k0 (=100).

B8: GpH7-B3 variant T335_10E/GpL16-k0 (antibody, human IgG1, kappa)
heavy: not shown
light: B1 light
notes: also called Ho Ab T335_10E
As for B8, the Ho/Con_3a is 102 % of HoCon Ab GpH7-B3/GpL16-k0 (=100).

B9: GpH7-B3 variant I336_14T/GpL16-k0 (antibody, human IgG1, kappa)
heavy: not shown
light: B1 light
notes: also called Ho Ab I336_14T
For B9, the Ho/Con_3a was 123 % of HoCon Ab GpH7-B3/GpL16-k0 (=100).

B10: GpH7-B3 variant S267_09D/GpL16-k0 (antibody, human IgG1, kappa)
heavy: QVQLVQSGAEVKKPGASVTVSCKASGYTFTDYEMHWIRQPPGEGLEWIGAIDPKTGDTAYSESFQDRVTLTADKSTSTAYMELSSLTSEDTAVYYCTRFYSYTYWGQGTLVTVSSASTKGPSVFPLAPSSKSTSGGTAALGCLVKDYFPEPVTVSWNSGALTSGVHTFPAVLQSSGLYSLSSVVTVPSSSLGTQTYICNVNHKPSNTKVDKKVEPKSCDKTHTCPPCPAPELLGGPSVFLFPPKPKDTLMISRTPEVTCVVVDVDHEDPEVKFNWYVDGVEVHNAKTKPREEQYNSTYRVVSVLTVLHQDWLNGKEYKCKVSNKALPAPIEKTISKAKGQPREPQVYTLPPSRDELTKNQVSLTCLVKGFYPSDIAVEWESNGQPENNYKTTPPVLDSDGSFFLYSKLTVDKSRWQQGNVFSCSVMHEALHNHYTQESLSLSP
light: B1 light
notes: also called Ho Ab S267_09D
For B10, the Ho/Con_3a is 160 % of HoCon Ab GpH7-B3/GpL16-k0 (=100).

B11: GpH7-B3 variant I336_13S/GpL16-k0 (antibody, human IgG1, kappa)
heavy: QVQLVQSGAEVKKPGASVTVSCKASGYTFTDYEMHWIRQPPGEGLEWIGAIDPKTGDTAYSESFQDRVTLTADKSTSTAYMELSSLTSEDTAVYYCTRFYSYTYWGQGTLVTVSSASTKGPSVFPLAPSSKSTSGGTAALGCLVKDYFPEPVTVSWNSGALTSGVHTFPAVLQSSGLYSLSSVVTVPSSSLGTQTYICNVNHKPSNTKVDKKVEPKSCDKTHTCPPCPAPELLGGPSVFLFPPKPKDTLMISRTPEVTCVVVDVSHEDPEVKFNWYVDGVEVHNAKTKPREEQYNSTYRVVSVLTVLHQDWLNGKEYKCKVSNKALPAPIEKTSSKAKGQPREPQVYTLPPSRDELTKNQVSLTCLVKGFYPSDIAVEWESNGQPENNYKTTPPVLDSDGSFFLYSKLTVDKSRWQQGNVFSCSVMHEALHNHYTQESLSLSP
light: B1 light
notes: also called Ho Ab I336_13S
As to B11, the Ho/Con_3a was 119 % of HoCon Ab GpH7-B3/GpL16-k0 (=100).

B12: GpH7-B3 variant K334_05P/GpL16-k0 (antibody, human IgG1, kappa)
heavy: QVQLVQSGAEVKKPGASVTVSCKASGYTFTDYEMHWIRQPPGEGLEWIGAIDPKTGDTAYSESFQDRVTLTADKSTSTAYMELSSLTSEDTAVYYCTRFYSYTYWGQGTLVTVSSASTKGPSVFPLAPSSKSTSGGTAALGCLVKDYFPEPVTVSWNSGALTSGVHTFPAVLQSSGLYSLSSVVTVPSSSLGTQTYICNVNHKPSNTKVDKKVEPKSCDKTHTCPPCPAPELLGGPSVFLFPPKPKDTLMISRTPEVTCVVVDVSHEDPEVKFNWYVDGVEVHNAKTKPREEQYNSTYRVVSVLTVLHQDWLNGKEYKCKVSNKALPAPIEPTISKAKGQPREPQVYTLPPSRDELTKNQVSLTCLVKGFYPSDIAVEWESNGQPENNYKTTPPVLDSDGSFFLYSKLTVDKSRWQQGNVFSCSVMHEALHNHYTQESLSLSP
light: B1 light
notes: also called Ho Ab K334_05P
As for B12, the Ho/Con_3a is 165 % of HoCon Ab GpH7-B3/GpL16-k0 (=100).

B13: GpH7-B3 variant I336_02A/GpL16-k0 (antibody, human IgG1, kappa)
heavy: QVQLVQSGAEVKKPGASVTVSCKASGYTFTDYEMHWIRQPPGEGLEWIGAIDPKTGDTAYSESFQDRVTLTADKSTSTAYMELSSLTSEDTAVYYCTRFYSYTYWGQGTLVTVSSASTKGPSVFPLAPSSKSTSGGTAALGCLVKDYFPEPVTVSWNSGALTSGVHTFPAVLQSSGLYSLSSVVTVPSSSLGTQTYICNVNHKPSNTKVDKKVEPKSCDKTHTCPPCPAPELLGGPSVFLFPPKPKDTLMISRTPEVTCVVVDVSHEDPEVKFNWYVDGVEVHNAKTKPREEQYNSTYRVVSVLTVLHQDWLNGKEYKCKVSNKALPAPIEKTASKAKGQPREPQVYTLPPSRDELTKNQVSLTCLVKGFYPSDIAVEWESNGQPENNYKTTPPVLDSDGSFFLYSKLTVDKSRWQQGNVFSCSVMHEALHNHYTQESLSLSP
light: B1 light
notes: also called Ho Ab I336_02A
With B13, the Ho/Con_3a was 104 % of HoCon Ab GpH7-B3/GpL16-k0 (=100).

B14: GpH7-B3 variant K334_02A/GpL16-k0 (antibody, human IgG1, kappa)
heavy: not shown
light: B1 light
notes: also called Ho Ab K334_02A
B14: the Ho/Con_3a is 154 % of HoCon Ab GpH7-B3/GpL16-k0 (=100).

B15: GpH7-A5/GpH7-B3 variant H268_09D/GpL16-k0 (antibody, human IgG1, kappa)
heavy 1: not shown
heavy 2: not shown
light: B1 light
notes: also called He Ab H268_09D
As for B15, the He/Con_3a was 197 % of HeCon Ab GpH7-A5/GpH7-B3/GpL16-k0 (=100).

B16: GpH7-B3 variant K334_13S/GpL16-k0 (antibody, human IgG1, kappa)
heavy: not shown
light: B1 light
notes: also called Ho Ab K334_13S
Take B16: the Ho/Con_3a is 153 % of HoCon Ab GpH7-B3/GpL16-k0 (=100).

B17: GpH7-B3 variant K326_08L/GpL16-k0 (antibody, human IgG1, kappa)
heavy: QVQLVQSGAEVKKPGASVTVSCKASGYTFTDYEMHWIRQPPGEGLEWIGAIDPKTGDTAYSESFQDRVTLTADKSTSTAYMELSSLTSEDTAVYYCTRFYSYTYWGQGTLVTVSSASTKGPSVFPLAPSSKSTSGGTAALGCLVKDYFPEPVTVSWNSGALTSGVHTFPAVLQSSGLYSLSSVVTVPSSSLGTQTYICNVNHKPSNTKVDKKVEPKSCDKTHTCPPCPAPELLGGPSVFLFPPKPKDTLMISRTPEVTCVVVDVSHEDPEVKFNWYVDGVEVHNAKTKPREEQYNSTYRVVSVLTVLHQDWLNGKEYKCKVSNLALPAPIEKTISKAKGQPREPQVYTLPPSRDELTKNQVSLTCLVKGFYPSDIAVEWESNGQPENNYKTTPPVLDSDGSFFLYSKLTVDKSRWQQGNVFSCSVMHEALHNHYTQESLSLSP
light: B1 light
notes: also called Ho Ab K326_08L
On to B17, for which the Ho/Con_3a is 114 % of HoCon Ab GpH7-B3/GpL16-k0 (=100).

B18: GpH7-B3 variant I336_03V/GpL16-k0 (antibody, human IgG1, kappa)
heavy: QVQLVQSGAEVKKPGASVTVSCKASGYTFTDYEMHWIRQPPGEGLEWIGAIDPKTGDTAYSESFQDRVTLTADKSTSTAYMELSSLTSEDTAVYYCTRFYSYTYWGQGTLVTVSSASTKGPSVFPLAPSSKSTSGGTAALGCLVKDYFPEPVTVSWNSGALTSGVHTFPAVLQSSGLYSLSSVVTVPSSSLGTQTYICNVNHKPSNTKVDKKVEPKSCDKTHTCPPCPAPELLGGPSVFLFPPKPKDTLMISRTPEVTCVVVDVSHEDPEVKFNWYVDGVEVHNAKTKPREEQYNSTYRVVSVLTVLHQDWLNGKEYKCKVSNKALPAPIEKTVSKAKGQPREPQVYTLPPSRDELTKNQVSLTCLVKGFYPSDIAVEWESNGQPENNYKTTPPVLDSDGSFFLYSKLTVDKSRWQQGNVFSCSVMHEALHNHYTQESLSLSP
light: B1 light
notes: also called Ho Ab I336_03V
Take B18: the Ho/Con_3a is 110 % of HoCon Ab GpH7-B3/GpL16-k0 (=100).

B19: GpH7-B3 variant Q295_10E/GpL16-k0 (antibody, human IgG1, kappa)
heavy: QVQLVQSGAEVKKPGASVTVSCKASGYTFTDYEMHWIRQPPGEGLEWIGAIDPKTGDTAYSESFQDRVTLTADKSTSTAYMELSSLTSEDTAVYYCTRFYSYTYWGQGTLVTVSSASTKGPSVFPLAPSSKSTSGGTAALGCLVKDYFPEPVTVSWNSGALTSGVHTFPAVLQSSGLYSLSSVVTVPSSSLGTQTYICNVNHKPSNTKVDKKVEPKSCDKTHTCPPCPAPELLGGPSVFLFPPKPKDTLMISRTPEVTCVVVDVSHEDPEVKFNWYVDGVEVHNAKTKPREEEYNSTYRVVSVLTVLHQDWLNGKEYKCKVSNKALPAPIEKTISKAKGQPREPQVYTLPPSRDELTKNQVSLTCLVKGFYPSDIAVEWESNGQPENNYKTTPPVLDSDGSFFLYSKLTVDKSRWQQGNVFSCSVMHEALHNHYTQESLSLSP
light: B1 light
notes: also called Ho Ab Q295_10E
Regarding B19, the Ho/Con_3a was 111 % of HoCon Ab GpH7-B3/GpL16-k0 (=100).

B20: GpH7-B3 variant K334_19Q/GpL16-k0 (antibody, human IgG1, kappa)
heavy: not shown
light: B1 light
notes: also called Ho Ab K334_19Q
Consider B20, for which the Ho/Con_3a was 150 % of HoCon Ab GpH7-B3/GpL16-k0 (=100).

B21: GpH7-B3 variant K326_15Y/GpL16-k0 (antibody, human IgG1, kappa)
heavy: not shown
light: B1 light
notes: also called Ho Ab K326_15Y
In the case of B21, the Ho/Con_3a was 115 % of HoCon Ab GpH7-B3/GpL16-k0 (=100).

B22: GpH7-B3 variant K326_07I/GpL16-k0 (antibody, human IgG1, kappa)
heavy: not shown
light: B1 light
notes: also called Ho Ab K326_07I
For B22, the Ho/Con_3a is 134 % of HoCon Ab GpH7-B3/GpL16-k0 (=100).

B23: GpH7-B3 variant K334_08L/GpL16-k0 (antibody, human IgG1, kappa)
heavy: not shown
light: B1 light
notes: also called Ho Ab K334_08L
As for B23, the Ho/Con_3a is 178 % of HoCon Ab GpH7-B3/GpL16-k0 (=100).

B24: GpH7-B3 variant K334_16H/GpL16-k0 (antibody, human IgG1, kappa)
heavy: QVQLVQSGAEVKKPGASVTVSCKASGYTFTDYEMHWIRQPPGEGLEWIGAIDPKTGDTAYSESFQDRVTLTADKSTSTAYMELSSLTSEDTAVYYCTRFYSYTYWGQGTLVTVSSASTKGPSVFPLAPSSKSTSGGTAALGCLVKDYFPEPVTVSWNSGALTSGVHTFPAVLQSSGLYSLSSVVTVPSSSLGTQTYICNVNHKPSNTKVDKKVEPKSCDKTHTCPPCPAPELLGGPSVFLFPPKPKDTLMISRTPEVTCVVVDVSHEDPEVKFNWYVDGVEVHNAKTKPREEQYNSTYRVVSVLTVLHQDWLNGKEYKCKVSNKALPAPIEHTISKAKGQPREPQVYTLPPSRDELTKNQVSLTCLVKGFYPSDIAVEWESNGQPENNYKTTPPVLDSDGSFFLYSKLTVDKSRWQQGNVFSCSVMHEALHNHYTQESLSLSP
light: B1 light
notes: also called Ho Ab K334_16H
In the case of B24, the Ho/Con_3a was 153 % of HoCon Ab GpH7-B3/GpL16-k0 (=100).

B25: GpH7-B3 variant S337_18N/GpL16-k0 (antibody, human IgG1, kappa)
heavy: not shown
light: B1 light
notes: also called Ho Ab S337_18N
As for B25, the Ho/Con_3a is 102 % of HoCon Ab GpH7-B3/GpL16-k0 (=100).

B26: GpH7-B3 variant S337_09D/GpL16-k0 (antibody, human IgG1, kappa)
heavy: not shown
light: B1 light
notes: also called Ho Ab S337_09D
B26: the Ho/Con_3a was 106 % of HoCon Ab GpH7-B3/GpL16-k0 (=100).

B27: GpH7-B3 variant K334_18N/GpL16-k0 (antibody, human IgG1, kappa)
heavy: not shown
light: B1 light
notes: also called Ho Ab K334_18N
Regarding B27, the Ho/Con_3a was 156 % of HoCon Ab GpH7-B3/GpL16-k0 (=100).
